Measured values reported in US6399570B1, “Antimicrobial/endotoxin neutralizing polypeptide” (priority 1999, dated 2002).

Experiments:
[1] = system: lipid A from E. coli 0113; test: LAL assay, neutralization of lipid A endotoxin activity (FIG. 6); type: biochemical; conditions: lipid A 30 ng/ml
Method: The lipid A region of the LPS molecule is primarily responsible for the inflammatory and toxic effects of LPS. When LPS is released from the microbe, the lipid A portion may become more accessible. The following assays were performed to determine the potential of various amino-terminal LF polypeptides to neutralize the endotoxic activity of the lipid A portion of LPS. LF, the 6 kDa fragment of LF, LF-33, LF-27, and polymyxin B were each tested for the ability to neutralize the endotoxin activity of lipid A from E. coli 0113 (30 ng/ml), using a LAL assay. […] The endotoxin activity of the smaller fragments of LF indicate that endotoxin-neutralizing activity of these small polypeptides is masked when in the context of the intact LF molecule.

E. coli 0111 = test: Time course of E. coli growth in the presence of LF polypeptides; type: cell-based; conditions: 50 μM, seven hour time course, OD 600 nm
Method: To investigate whether regions of the molecule involved in GAG binding activity of the 6 kDa LF polypeptide (generated from pepsin digestion) are also involved in the antimicrobial activity of the 6 kDa polypeptide of the present invention, polypeptides of various lengths corresponding to the N-terminal amino acid sequence of LF were tested for the ability to inhibit the growth of E. coli 0111. Overnight cultures were grown over a seven hour time course in the presence of 50 μM of either LF, a 33-mer corresponding to amino acids 1-33 of LF, a 26-mer corresponding to […] of LF, a 27-mer corresponding to amino acids 1-27 of LF. […] This is consistent with LF and the 33-mer inhibiting bacterial growth via different mechanisms. […] The failure of the 26-mer and the 27-mer to inhibit culture growth emphasizes the importance of retaining both clusters of basic residues, at the termini of the 33-mer, for the antimicrobial functionality of polypeptides derived from the N-terminal LF sequence.
Time course of E. coli growth in the presence of LF polypeptides. E. coli cells, clinical isolate strain 0111, were obtained from ATCC. […] Culture growth was monitored spectrophotometrically by measuring optical density at 600 nm at each indicated time point.

B1: LF: 80 kDa iron-binding glycoprotein, purified from human colostrum (protein, UniProt P02788 20-710, looked up)
Lactotransferrin: GRRRSVQWCAVSQPEATKCFQWQRNMRKVRGPPVSCIKRDSPIQCIQAIAENRADAVTLDGGFIYEAGLAPYKLRPVAAEVYGTERQPRTHYYAVAVVKKGGSFQLNELQGLKSCHTGLRRTAGWNVPIGTLRPFLNWTGPPEPIEAAVARFFSASCVPGADKGQFPNLCRLCAGTGENKCAFSSQEPYFSYSGAFKCLRDGAGDVAFIRESTVFEDLSDEAERDEYELLCPDNTRKPVDKFKDCHLARVPSHAVVARSVNGKEDAIWNLLRQAQEKFGKDKSPKFQLFGSPSGQKDLLFKDSAIGFSRVPPRIDSGLYLGSGYFTAIQNLRKSEEEVAARRARVVWCAVGEQELRKCNQWSGLSEGSVTCSSASTTEDCIALVLKGEADAMSLDGGYVYTAGKCGLVPVLAENYKSQQSSDPDPNCVDRPVEGYLAVAVVRRSDTSLTWNSVKGKKSCHTAVDRTAGWNIPMGLLFNQTGSCKFDEYFSQSCAPGSDPRSNLCALCIGDEQGENKCVPNSNERYYGYTGAFRCLAENAGDVAFVKDVTVLQNTDGNNNEAWAKDLKLADFALLCLDGKRKPVTEARSCHLAMAPNHAVVSRMDKVERLKQVLLHQQAKFGRNGSDCPDKFCLFQSETKNLLFNDNTECLARLHGKTTYEKYLGPQYVAGITNLKKCSTSPLLEACEFLRK
Q: What does the source list for B1?
A: lipid A neutralizing activity [1]: no appreciable lipid A neutralizing activity; growth of E. coli 0111 cultures (E. coli 0111): transient growth suppressing effect
